# Earlier results in publication PMC7092810.
# Target: Cyclophilin A (Homo sapiens) (UniProt P62937)
# Sequence (P62937 whole entry): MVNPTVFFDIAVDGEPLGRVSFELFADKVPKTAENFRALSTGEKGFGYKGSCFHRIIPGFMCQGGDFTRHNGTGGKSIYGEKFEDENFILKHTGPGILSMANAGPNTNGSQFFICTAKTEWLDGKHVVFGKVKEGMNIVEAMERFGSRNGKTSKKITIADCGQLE
# Sequence of HIV-1 capsid protein CA (O93182 133-363): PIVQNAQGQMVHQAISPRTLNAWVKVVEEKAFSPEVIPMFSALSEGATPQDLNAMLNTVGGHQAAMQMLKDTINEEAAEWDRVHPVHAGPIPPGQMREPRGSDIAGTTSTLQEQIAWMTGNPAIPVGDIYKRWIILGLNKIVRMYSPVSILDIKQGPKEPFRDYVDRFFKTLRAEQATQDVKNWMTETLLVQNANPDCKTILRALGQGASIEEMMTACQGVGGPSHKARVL
substance,measurement,value
HIV-1 capsid protein CA (from UniProt O93182),Kd,16 µM
